Results as given in US7462695B2, “Insect chymotrypsin and inhibitors thereof” (Hexima Limited, priority 2003, dated 2008).

Columns and labels:
bovine chymotrypsin = bovine chymotrypsin (Bos taurus, UniProt P00766); experiment: Inhibition of bovine chymotrypsin; format: biochemical; conditions: 100 ng bovine chymotrypsin, pH 10; for % Inhibition BC: at maximum concentration tested
Procedure: (§1) Several proteinase inhibitors were tested for their ability to inhibit the activity of the insensitive chymotrypsins. The buffer used for all assays was 500 mM CAPS, 75 mM NaCl, 2.5 mM MgCl2 at pH 10.

[1] = system: chymotrypsin activity in unfractionated gut extracts from H. punctigera; experiment: Chymotrypsin activity in unfractionated gut extracts with proteinase inhibitors (FIG. 3); format: biochemical, Helicoverpa punctigera; conditions: larvae raised on haricot bean diet without added proteinase inhibitors; substrate SAAPFpNA
Procedure: FIG. 3 is a graphical representation showing the effect of various proteinase inhibitors on the chymotrypsin activity in unfractionated gut extracts from H. punctigera. Proteinase inhibitors were mixed with 1 μg of protein from an unfractionated gut extract before incubation with the chymotrypsin substrate N-succinyl-Ala-Ala-Pro-Phe-p-nitroanilide. Inhibition is expressed as a percentage of the total activity in the control samples.
Fourth-instar larvae were killed using ethyl-acetate prior the removal of individual gut which were then homogenized in a mortar and pestle in an equal amount [(w/v)] of 50 mM Tris-HCl, pH 8.0 containing 100 μM benzamidine. Insoluble material was removed by centrifugation at 20,000 rpm for 15 min at 4° C. and total protein concentration determined using the Bradford method (Bradford, Anal Biochem 72: 248-254, 1976) with reagents from BioRad and BSA as a standard.
Unfractionated gut extract containing approximately 1 μg of buffer soluble protein was added to 10 μL CAPS buffer (0.5 M, 3-[cyclohexylamino]-1-propane-sulfonic acid, pH 10) and made to a final volume of 100 μL in individual wells of a 96 well microtiter plate. Proteinase inhibitors were added over a range of concentrations and incubated for 15 min at 25° C. Bovine chymotrypsin (100 ng) was used as a positive control, both for activity and inhibition. The chromogenic artificial substrate SAAPFpNA (N-Succinyl-L-alanyl-L-alanyl-L-prolyl-L-phenylalanine 4-nitroanilide) was then added to a final concentration of 1 mM and hydrolysis of the substrate was measured at 405 nm using the SpectraMax 250 microtiter plate reader (Molecular Devices).

[2] = system: chymotrypsin activity in gut extracts of H. punctigera larvae; experiment: Inhibition of chymotrypsin activity in individual larval gut extracts (FIG. 2F); format: biochemical, Helicoverpa punctigera; conditions: pre-incubated with 80 nM
Text: FIG. 2 is a graphical representation showing growth of H. punctigera larvae fed on either low protein haricot bean artificial diet or cotton leaf artificial diet, in the presence or absence of 0.26% (w/v) NaPIs. Weight gain (mg) was monitored for 21 days. […] (A) Growth of larvae. (B) Relative size of larvae at 21 days after feeding on cotton artificial diet, in the presence or absence of 0.26% NaPIs. […] (C) The effect of NaPIs on gut trypsin and chymotrypsin activity. When each H. punctigera larva reached the late fourth/early fifth instar stage of development, the gut was removed and gut extract prepared prior to assays for trypsin and chymotrypsin activity. […] Trypsin activity was determined using BApNA substrate and chymotrypsin activity with SAAPFpNA substrate. Units of activity are expressed as change in absorbance at 405 nm/min/mg gut extract protein (±standard deviation). […] Trypsin activity was determined using BApNA substrate and chymotrypsin activity with SAAPFpNA substrate. Units of activity are expressed as change in absorbance at 405 nm/min/mg faecal extract protein (±standard deviation). […] Frass extracts were analysed on 15% ((w/v)) SDS-PAGE and transferred to nitrocellulose. […] Units of activity are expressed as substrate hydrolysis at 405 nm/min/mg extract protein (±standard deviation). […] Trypsin activity was determined using BApNA substrate. […]

[3] = molecular target: NaPI-insensitive chymotrypsins from H. punctigera (Helicoverpa punctigera, UniProt A0PGE0); experiment: Inhibition of NaPI-insensitive chymotrypsin (gut extract depleted of trypsins and NaPI-sensitive chymotrypsins); format: biochemical; conditions: pH 10, 30 min preincubation at 30° C.
Chain of NaPI-insensitive chymotrypsins from H. punctigera (A0PGE0 entry or part of it): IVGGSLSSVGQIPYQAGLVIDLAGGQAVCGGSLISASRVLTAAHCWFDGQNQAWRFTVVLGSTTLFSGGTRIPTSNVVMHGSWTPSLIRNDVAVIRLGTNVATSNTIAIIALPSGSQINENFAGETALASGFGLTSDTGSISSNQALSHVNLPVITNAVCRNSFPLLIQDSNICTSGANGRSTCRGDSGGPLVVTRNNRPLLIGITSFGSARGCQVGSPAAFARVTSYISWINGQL
Procedure: The midgut was dissected from 100 fourth instar larvae and buffer soluble extracts were prepared. The gut extract was depleted of NaPI-sensitive proteases by passage through an affinity column composed of immobilized NAPI protein (C1, C2, T1-T4). […] This preparation of unbound material was used to study the pH optimum, substrate preference and effect of a range of proteinase inhibitors on the activity of the NaPI-insensitive proteinase. […] The best substrate for enzyme assays was determined using seven different commercial substrates.
as §1

[4] = system: trypsin activity in gut extracts; conditions: in vitro, cited from earlier work
[5] = system: chymotrypsin from the gut of H. zea larvae; conditions: cited from earlier work
[6] = system: Agrotis ipsilon (black cutworm); conditions: after exposure in the diet; cited from earlier work

For `CC(C)C[C@H](NC(=O)[C@@H](NC(=O)N[C@@H](Cc1ccccc1)C(=O)O)[C@@H]1CCN=C(N)N1)C(=O)N[C@H](C=O)Cc1ccccc1` [Chymostatin, reference compound], the “% Inhibition BC” value (bovine chymotrypsin) was 100%, the “inhibition of gut chymotrypsin activity (in words)” value [1] was “totally inhibited” and the “inhibition of chymotrypsin activity, extracts from control and NaPI-fed larvae” value [2] was “all chymotrypsin activity was abolished”.

B1: SBTI: soybean trypsin inhibitor (protein, UniProt P01070 25-205, looked up)
Trypsin inhibitor A: DFVLDNEGNPLENGGTYYILSDITAFGGIRAAPTGNERCPLTVVQSRNELDKGIGTIISSPYRIRFIAEGHPLSLKFDSFAVIMLCVGIPTEWSVVEDLPEGPAVKIGENKDAMDGWFRLERVSDDEFNNYKLVFCPQQAEDDKCGDIGISIDHDDGTRRLVVSKNKPLVVQFQKLDKESL
With B1 the “% Inhibition Insensitive” value ([3]; at maximum concentration tested) was 82%, the IC50 [3] was 33 µM and the IC50 (bovine chymotrypsin) was 13 µM. For the same molecule, the “% Inhibition BC” value (bovine chymotrypsin) was 94%, the “inhibition of gut chymotrypsin activity (in words)” value [1] was “failed to abolish all the chymotrysin activity” and the “inhibition of gut trypsin activity in larvae that had consumed SBTI” value ([4]; 48 h on diet with 1% SBTI) was 3%. For the same molecule, the “inhibition of trypsin activity in gut extracts from control larvae” value [4] was 74%, the “inhibition of chymotrypsin activity from the gut of insects with prior exposure to SBTI in the diet” value [5] was 35% and the “inhibition of chymotrypsin from the gut of control insects” value [5] was 95%. For the same molecule, the “reduction in total gut proteolytic activity” value [6] was at most 70%.
